These are literature values, as cited in paper PMC7017177.

For the series, the target named is CTLA-4 (Homo sapiens) (UniProt P16410).
UniProt P16410, sequence (P16410 36-161): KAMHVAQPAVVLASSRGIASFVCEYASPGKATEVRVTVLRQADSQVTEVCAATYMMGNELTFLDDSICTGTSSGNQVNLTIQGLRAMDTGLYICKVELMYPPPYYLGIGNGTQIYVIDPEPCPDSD

What is called Kd is the free concentration of one partner at which half of the binding sites on the other are occupied at equilibrium, for simple one-to-one binding. Consider Tremelimumab, for which the equilibrium dissociation constant (Kd) is 0.28 nM.
